Measurements taken from patent US20090035818A1 (NATIONAL UNIVERSITY OF CORPORATION HIROSHIMA UNIVERSITY, published 2009).

T1: fetuin (type III, calf serum) (calf, UniProt P12763 19-359)
T1 sequence (looked up): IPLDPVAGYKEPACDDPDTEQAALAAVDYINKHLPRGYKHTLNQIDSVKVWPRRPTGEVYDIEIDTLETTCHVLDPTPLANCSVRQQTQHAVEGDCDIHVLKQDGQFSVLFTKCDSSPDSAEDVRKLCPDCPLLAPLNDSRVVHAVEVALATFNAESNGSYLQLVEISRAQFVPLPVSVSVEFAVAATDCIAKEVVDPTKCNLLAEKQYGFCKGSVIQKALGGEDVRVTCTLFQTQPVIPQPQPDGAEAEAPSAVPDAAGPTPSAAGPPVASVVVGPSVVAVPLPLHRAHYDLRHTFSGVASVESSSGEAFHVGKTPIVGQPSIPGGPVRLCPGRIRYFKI

T2: asialofetuin (calf, UniProt P12763 19-359, sugar chains desialylated)
T2 sequence (looked up): T1 sequence (looked up)

B1: BML-17 (other)
chain: VIYQDPVTSDMFAKIPMPGHRGPWYVCHSSGDWSRNEPVFGRCAIDAKGMVEAYFPYGGKDIKWPSRWSAVITTGVYWGKYNDWKQADCNGGQQVVDGGRGAVTVRMDGISECKGWTTGKSSHNEVWFGCNGKEVGSWISDTPASDVFPICQEYGAAVKIVHMGRAFN
notes: also called polypeptide isolated from Bryopsis maxima; BML-17 column (immobilised form)
B2: Eucheuma serra-derived lectin ESA-2 (other)
chain: GRYTVQNQWGGSSAPWNDAGLWILGSRGNQNVMAVDVNSSDGGANLNGTMTYSGEGPIGFKGARRGESNVYDVENQWGGSSAPWHAGGQFVIGSRSGQGVLAVNITSSDGGKTLTGTMTYEREGPIGFKGTQSGGDTYNVENQWGGSSAPWNKAGIWALGDRSGQAMIAMDVSSSDGGKTLEGTMQYKGEGPIGFRGKLSGANNYSVENQWGGSSAPWNAAGDWLIGDRHNQNITAVKVSSDNDGKNLDGTCTYEREGPIGFKGVATS

Key:
[1] = biological target: T3, chicken egg yolk antibody (chicken IgY antibody) (chicken); test: SPR (Biacore 2000), chicken IgY on CM5 chip, lectin as analyte
T3 construct: Purified from egg yolk with the Eggcellent Chicken IgY Purification Kit (Pierce)
Excerpt: Assessment was made as to affinity of the different types of lectins and chicken egg yolk antibody (chicken IgY antibody). Briefly, using Biacore 2000 (BIACORE) that employs the principle of surface plasmon resonance method (hereinafter, “SPR method”), chicken egg yolk antibodies (chicken IgY antibodies) were immobilized as ligands on a sensor chip, and measurements were made according to manuals using each type of lectin solution as an analyte. The SPR technique allows for measurement of specific interactions between biomolecules both quickly and quantitatively, without labeling the biomolecules. According to this technique, the ligands are immobilized on a surface of the sensor chip, which is then supplemented with a solution of substance (analyte) that acts on the ligand. Slight changes in mass caused by the binding and dissociation of the molecules are then detected as changes in SPR signals. The mass change is represented by resonance unit (RU). One thousand RU is equivalent to a change in reflection angle of 0.1° caused by resonance, and it means that the analyte has bound to the ligand at 1 ng/mm². The surface of the sensor chip is coated with dextran, and the ligands are immobilized primarily via carboxyl groups that have been introduced into the dextran.
Affinity between each glycoprotein and each lectin was analyzed by SPR technique. Prior to analysis, preliminary analyses were made to assess analysis methods. […] An analysis program was created using “Customized Application” according to the manual, and a subtraction function was used in which subtraction was made from flow cells that had glycoproteins immobilized thereon, from among four flow cells in the sensor chip. […] Under this analysis program, each analyte (lectin) solution was flown on the sensor chip at a flow rate of 30 μl/min for 3 minutes, and buffer was flown for 3 minutes to measure the amount of lectin that had bonded/dissociated.

transferrin (human) = transferrin (human) (human, UniProt P02787 20-698); test: cell-based or functional assay
[2] = biological target: T1, fetuin (type III, calf serum); test: cell-based or functional assay
[3] = biological target: mucin (bovine submaxillary gland) (bovine); test: cell-based or functional assay
asialomucin = asialomucin (bovine); test: cell-based or functional assay
asialofetuin = biological target: T2, asialofetuin; test: cell-based or functional assay
asialotransferrin = asialotransferrin (human, UniProt P02787 20-698, sugar chains desialylated by dilute acid treatment; only complex-type sugar chain); test: cell-based or functional assay
Chain of asialotransferrin (P02787 20-698 limits assumed): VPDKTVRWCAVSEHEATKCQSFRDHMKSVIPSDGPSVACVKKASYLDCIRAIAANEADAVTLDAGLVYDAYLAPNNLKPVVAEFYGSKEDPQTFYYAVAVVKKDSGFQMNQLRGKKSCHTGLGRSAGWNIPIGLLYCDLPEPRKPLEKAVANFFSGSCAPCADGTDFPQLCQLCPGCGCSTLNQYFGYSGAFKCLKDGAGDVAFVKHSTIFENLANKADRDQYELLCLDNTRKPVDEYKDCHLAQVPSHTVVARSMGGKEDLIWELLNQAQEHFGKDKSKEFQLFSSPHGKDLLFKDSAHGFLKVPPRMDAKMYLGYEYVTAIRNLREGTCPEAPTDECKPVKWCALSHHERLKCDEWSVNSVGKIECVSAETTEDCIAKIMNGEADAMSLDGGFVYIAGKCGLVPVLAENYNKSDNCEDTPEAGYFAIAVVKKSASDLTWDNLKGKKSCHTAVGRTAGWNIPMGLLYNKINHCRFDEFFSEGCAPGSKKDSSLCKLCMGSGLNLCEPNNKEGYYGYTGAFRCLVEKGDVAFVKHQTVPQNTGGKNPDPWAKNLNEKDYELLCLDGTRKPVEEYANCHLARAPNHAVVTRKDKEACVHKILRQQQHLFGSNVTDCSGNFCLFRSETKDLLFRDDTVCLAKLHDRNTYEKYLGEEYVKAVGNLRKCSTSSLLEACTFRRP

Chain of transferrin (human) (P02787 20-698 limits assumed): as above

Binder	Ka [1] [M⁻¹]	Kd [1] [nM]	koff [1] [s⁻¹]	kon [1] [M⁻¹ s⁻¹]	Minimum inhibitory concentration (hemagglutination inhibition, trypsin-treated rabbit erythrocytes) (transferrin (human)) [µg/mL]	Minimum inhibitory concentration (hemagglutination inhibition, trypsin-treated rabbit erythrocytes) [2] [µg/mL]	Minimum inhibitory concentration (hemagglutination inhibition, trypsin-treated rabbit erythrocytes) [3] [µg/mL]	Minimum inhibitory concentration (hemagglutination inhibition, trypsin-treated rabbit erythrocytes) (asialomucin) [µg/mL]	Minimum inhibitory concentration (hemagglutination inhibition, trypsin-treated rabbit erythrocytes) (asialofetuin) [µg/mL]	Minimum inhibitory concentration (hemagglutination inhibition, trypsin-treated rabbit erythrocytes) (asialotransferrin) [µg/mL]
B1	8.36e+07	12	0.00586	490000	2000	1000	250	250	500	1000
B2	7.73e+07	12.9	0.00455	352000	–	–	–	–	–	–
